Source: publication PMC6330309, “Multispecific Antibody Development Platform Based on Human Heavy Chain Antibodies” (Frontiers in Immunology, 2018)

Target: T1, extracellular domain of human BCMA (Homo sapiens, UniProt Q02223)
T1 construct: B cell maturation antigen (BCMA), human, extracellular domain; PDB 4ZFO chain F was only the search model for molecular replacement; For the Octet experiments the methods say that antigens were either expressed in-house (ECD with His-tag) or commercially available
T1 sequence (Q02223 1-54): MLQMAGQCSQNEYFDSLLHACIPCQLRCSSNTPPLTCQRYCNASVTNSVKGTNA
Assay: crystal structure; BCMA and UniAb VH mixed at a 1:2 molar ratio for 20 min at 4°C, complex isolated by SEC (20 mM PBS, 250 mM NaCl); sitting drop vapor diffusion, 0.2 M sodium malonate pH 4.0, 20% PEG 3350; 2.6 Å; two complexes in the asymmetric unit
Details: both partners purified

binding result: binds
B1: anti-BCMA UniAb VH (IgHV3-23) (VHH)
VHH: EVQLVESGGGLVQPGGSLRLSCAASGFTVSSYGMSWVRQAPGKGPEWVSGIRGSDGSTYYADSVKGRFTISRDNSKNTLYLQMNSLRAEDTAVYYCAKQGENDGPFDHRGQGTLVTVS
notes: fully human VH single domain (IgHV3-23) from a UniRat heavy chain-only antibody, with R109 in framework 4 (W101R, Kabat); Human VH used as a single domain, no light chain and no Fc; also called UniAb VH (VH3-23)
